Substrate in series [1]: O=C(Cc1ccccc1)NC1Cc2ccc(C(=O)O)cc2OC1=O
The series can be described thus: (§1) Km for TEM-2 beta-lactamase hydrolysis.

Substrate in series [2]: O=C(Cc1ccccc1)NC1Cc2cccc(C(=O)O)c2OC1=O
The description is as §1.

Substrate in series [3]: O=C(O)c1ccc2c(c1)OC(=O)C(C(=O)NCc1ccccc1)C2
The series is described as §1.

Substrate in series [4]: O=C(O)c1cccc2c1OC(=O)C(C(=O)NCc1ccccc1)C2
The series is described as §1.

Substrate in series [5]: CC(=O)OCC1=C(C(=O)O)N2C(=O)[C@@H](NC(=O)Cc3cccs3)[C@H]2SC1
Put plainly: (§2) Km for Enterobacter cloacae P99 Beta-lactamase hydrolysis.

Substrate in series [6]: O=C(Cc1ccccc1)NC1Cc2ccc(C(=O)O)cc2OC1=O
Described as §2.

Substrate in series [7]: O=C(Cc1ccccc1)NC1Cc2cccc(C(=O)O)c2OC1=O
The series is described as §2.

Substrate in series [8]: O=C(O)c1ccc2c(c1)OC(=O)C(C(=O)NCc1ccccc1)C2
The description is as §2.

Substrate in series [9]: O=C(O)c1cccc2c1OC(=O)C(C(=O)NCc1ccccc1)C2
The series is described as §2.

Substrate in series [10]: CC(=O)OCC1=C(C(=O)O)N2C(=O)[C@@H](NC(=O)Cc3cccs3)[C@H]2SC1
The series can be described thus: (§3) Km for Staphylococcus aureus PC1 Beta-lactamase hydrolysis.

Substrate in series [11]: O=C(Cc1ccccc1)NC1Cc2cccc(C(=O)O)c2OC1=O
Described as §3.

Substrate in series [12]: O=C(O)c1ccc2c(c1)OC(=O)C(C(=O)NCc1ccccc1)C2
The series is described as §3.

Substrate in series [13]: O=C(O)c1cccc2c1OC(=O)C(C(=O)NCc1ccccc1)C2
The series is described as §3.

Substrate in series [14]: CC(=O)OCC1=C(C(=O)O)N2C(=O)[C@@H](NC(=O)Cc3cccs3)[C@H]2SC1
The series can be described thus: (§4) Km for OXA-1 beta-lactamase hydrolysis.

Substrate in series [15]: O=C(Cc1ccccc1)NC1Cc2cccc(C(=O)O)c2OC1=O
The series is described as §4.

Substrate in series [16]: O=C(O)c1cccc2c1OC(=O)C(C(=O)NCc1ccccc1)C2
The description is as §4.

B1: Beta-lactamase TEM (Escherichia coli), P62593 (protein)
chain: MSIQHFRVALIPFFAAFCLPVFAHPETLVKVKDAEDQLGARVGYIELDLNSGKILESFRPEERFPMMSTFKVLLCGAVLSRVDAGQEQLGRRIHYSQNDLVEYSPVTEKHLTDGMTVRELCSAAITMSDNTAANLLLTTIGGPKELTAFLHNMGDHVTRLDRWEPELNEAIPNDERDTTMPAAMATTLRKLLTGELLTLASRQQLIDWMEADKVAGPLLRSALPAGWFIADKSGAGERGSRGIIAALGPDGKPSRIVVIYTTGSQATMDERNRQIAEIGASLIKHW
What is called Km is the substrate concentration at which the rate is half of its maximum. On to B1, for which the Km in [1] is greater than 1200 µM; in series [2], 50 µM; in [3], greater than 200 µM; in series [4] it was 290 µM.

B2: Beta-lactamase (Enterobacter cloacae), P05364 (protein)
chain: MMRKSLCCALLLGISCSALATPVSEKQLAEVVANTITPLMKAQSVPGMAVAVIYQGKPHYYTFGKADIAANKPVTPQTLFELGSISKTFTGVLGGDAIARGEISLDDAVTRYWPQLTGKQWQGIRMLDLATYTAGGLPLQVPDEVTDNASLLRFYQNWQPQWKPGTTRLYANASIGLFGALAVKPSGMPYEQAMTTRVLKPLKLDHTWINVPKAEEAHYAWGYRDGKAVRVSPGMLDAQAYGVKTNVQDMANWVMANMAPENVADASLKQGIALAQSRYWRIGSMYQGLGWEMLNWPVEANTVVEGSDSKVALAPLPVAEVNPPAPPVKASWVHKTGSTGGFGSYVAFIPEKQIGIVMLANTSYPNPARVEAAYHILEALQ
On to B2, for which the Km in series [5] came to 9 µM; in [6], 290 µM; in series [7] it was 620 µM; in [8], 430 µM; in series [9] it was 0.2 µM.

B3: Beta-lactamase (Staphylococcus aureus), P00807 (protein)
chain: MKKLIFLIVIALVLSACNSNSSHAKELNDLEKKYNAHIGVYALDTKSGKEVKFNSDKRFAYASTSKAINSAILLEQVPYNKLNKKVHINKDDIVAYSPILEKYVGKDITLKALIEASMTYSDNTANNKIIKEIGGIKKVKQRLKELGDKVTNPVRYEIELNYYSPKSKKDTSTPAAFGKTLNKLIANGKLSKENKKFLLDLMLNNKSGDTLIKDGVPKDYKVADKSGQAITYASRNDVAFVYPKGQSEPIVLVIFTNKDNKSDKPNDKLISETAKSVMKEF
In the case of B3, the Km in series [10] was 1 µM; in series [11], 0.3 µM; in series [12] it was greater than 200 µM; in [13], 1.8 µM.

B4: Beta-lactamase OXA-1 (Escherichia coli), P13661 (protein)
chain: MKNTIHINFAIFLIIANIIYSSASASTDISTVASPLFEGTEGCFLLYDASTNAEIAQFNKAKCATQMAPDSTFKIALSLMAFDAEIIDQKTIFKWDKTPKGMEIWNSNHTPKTWMQFSVVWVSQEITQKIGLNKIKNYLKDFDYGNQDFSGDKERNNGLTEAWLESSLKISPEEQIQFLRKIINHNLPVKNSAIENTIENMYLQDLDNSTKLYGKTGAGFTANRTLQNGWFEGFIISKSGHKYVFVSALTGNLGSNLTSSIKAKKNAITILNTLNL
In the case of B4, the Km in series [14] was 10 µM; in series [15], 13.9 µM; in series [16], 7.4 µM.

(Values after ChEMBL document CHEMBL1137898, “Benzopyranones with retro-amide side chains as (inhibitory) beta-lactamase substrates” (Bioorg Med Chem Lett, 2004).)
